# Reference: the supplement of paper PMC7877785
# ± gives the uncertainty stated by the source.
# Experiment: self-splicing fitness, log relative to wild type (ln ratio); higher = more splicing; Tetrahymena group I intron in knt gene, E. coli kanamycin selection, DiMSum; sequences stand for … in CUCUCU…GGAGGGAAAAGUUAUCAGGCAUGCACCUGGUAGCUAGUCUUUAAACCAAUAGAUUGCAUCGGUUUAAAAGGCAAGACCGUCAAAUUGCGGGAAAGGGGUCAACAGCCGUUCAGUACCAAGUCUCAGGGGAAACUUUGAGAUGGCCUUGCAAAGGGUAUGGUAAUAAGCUGACGGACAUGGUCCUAACCACGCAGCCAAGUCCUAAGUCAACAGAUCUUCUGUUGAUAUGGAUGCAGUUCACAGACUAAAUGUCGGUCGGGGAAGAUGUAUUCUUCUCAUAAGAUAUAGUCGGACCUCUCCUUAAUGGGAGCUAGCGGAUGAAGUGAUGCAACACUGGAGCCGCUGGGAACUAAUUUGUAUGCGAAAGUAUAUUGAUUAGUUUUGGAGUACUCGUGGUCG
# Summary of the method: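 The eight P1ex-region nucleotides of an intron in the knt kanamycin-resistance gene on pET-22b(+) were all randomised and the library put into E. coli BL21(DE3). Six replicate transformations were grown overnight at 37°C or 30°C on LB agar with or without 25 μg/mL kanamycin, together with 100 μg/mL carbenicillin, 50 μM IPTG and 0.2% rhamnose. Colonies were pooled and amplicon-sequenced on an Illumina HiSeq 2500. Fitness from DiMSum is the error-weighted combination of wild-type-normalised replicate fold changes, kanamycin over none.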
Sequence,self-splicing fitness (ln) (30 °C),self-splicing fitness (ln) (37 °C)
AGAAAGCAAUAUUACGCGCG,-0.0244 ± 0.1,-0.00454 ± 0.14
AUCUAGCAAUAUUACGGCGG,-1.12 ± 0.083,-1.15 ± 0.1
CCGGAGCAAUAUUACGAGGC,-1.99 ± 0.34,-2.86 ± 0.38
UCGAAGCAAUAUUACGGUCC,-4.15 ± 0.42,-1.95 ± 0.31
CGGGAGCAAUAUUACGGCAG,-2.71 ± 0.21,-1.12 ± 0.26
GUAAAGCAAUAUUACGCAAC,–,-0.263 ± 0.42
CGAUAGCAAUAUUACGAGUG,-0.68 ± 0.08,-0.335 ± 0.096
CUUCAGCAAUAUUACGCCGG,-2.73 ± 0.34,–
CUAUAGCAAUAUUACGUCAC,-3.4 ± 0.28,-1.77 ± 0.31
UUUUAGCAAUAUUACGGCUU,-1.98 ± 0.17,-0.826 ± 0.2
AGCGAGCAAUAUUACGUUGA,–,-2.11 ± 0.16
AAUGAGCAAUAUUACGCAAU,-2.49 ± 0.23,-2.25 ± 0.25
ACAGAGCAAUAUUACGAAAG,-3.24 ± 0.19,-1.46 ± 0.16
UUGAAGCAAUAUUACGGACG,-0.0419 ± 0.12,0.902 ± 0.15
UUUUAGCAAUAUUACGAAAA,-1.13 ± 0.17,-0.0479 ± 0.18
GAGUAGCAAUAUUACGAAAU,-2.68 ± 0.21,-1.37 ± 0.23
UAGGAGCAAUAUUACGAGGC,-2.87 ± 0.17,-3 ± 0.29
UACGAGCAAUAUUACGGCUG,-0.628 ± 0.077,-0.0702 ± 0.1
GCAAAGCAAUAUUACGGGGU,-3.73 ± 0.15,-2.5 ± 0.15
GCGUAGCAAUAUUACGGGUA,-1.56 ± 0.11,-0.91 ± 0.098
CGUGAGCAAUAUUACGGCCU,-2.22 ± 0.23,-3.57 ± 0.46
CGGCAGCAAUAUUACGACAG,0.187 ± 0.11,-1.27 ± 0.12
CUAUAGCAAUAUUACGUAGU,-2.88 ± 0.16,-2.26 ± 0.23
UGUAAGCAAUAUUACGGGCC,-2.87 ± 0.41,-1.23 ± 0.41
UGCUAGCAAUAUUACGCAAC,-3.07 ± 0.28,-1.98 ± 0.2
AGCUAGCAAUAUUACGACAG,-2.36 ± 0.21,-1.64 ± 0.24

Sequence,self-splicing fitness (ln) (30 °C),self-splicing fitness (ln) (37 °C)
UGCUAGCAAUAUUACGAGUA,-1.34 ± 0.072,-0.447 ± 0.076
CACAAGCAAUAUUACGCCUU,-3.72 ± 0.18,-1.34 ± 0.14
CCACAGCAAUAUUACGUGGA,-3.7 ± 0.16,-3.16 ± 0.16
UACCAGCAAUAUUACGAUGU,-1.9 ± 0.091,-1.41 ± 0.11
CGAAAGCAAUAUUACGGGGU,-3.65 ± 0.21,-1.94 ± 0.18
CAUUAGCAAUAUUACGGGAC,-3.64 ± 0.27,-2.31 ± 0.25
AGUGAGCAAUAUUACGUUGA,-2.51 ± 0.13,-2.75 ± 0.2
UGAUAGCAAUAUUACGUAAG,-1.52 ± 0.093,-0.601 ± 0.11
GGGCAGCAAUAUUACGAUGC,-1.98 ± 0.2,-1.11 ± 0.24
GCGCAGCAAUAUUACGCUCA,-0.576 ± 0.14,0.238 ± 0.16
CGAUAGCAAUAUUACGCCAA,-2.66 ± 0.25,-1.87 ± 0.15
AGAAAGCAAUAUUACGCAUA,-2.44 ± 0.16,-1.19 ± 0.16
GGCGAGCAAUAUUACGAUUC,-0.495 ± 0.1,0.463 ± 0.14
CGCAAGCAAUAUUACGCGCG,-3.11 ± 0.12,-2.51 ± 0.16
GAGGAGCAAUAUUACGACGU,-1.37 ± 0.13,-0.0936 ± 0.15
AGAGAGCAAUAUUACGCCUA,-2.6 ± 0.48,-1.08 ± 0.33
GCAGAGCAAUAUUACGCCUA,–,-2.09 ± 0.3
GGUAAGCAAUAUUACGUGAG,-1.03 ± 0.079,0.0462 ± 0.09
CACCAGCAAUAUUACGAUGG,-1.58 ± 0.06,-0.874 ± 0.079
CACUAGCAAUAUUACGGAAA,-1.99 ± 0.42,-1.42 ± 0.5
GAGAAGCAAUAUUACGACCA,-1.12 ± 0.18,0.744 ± 0.3
UGCUAGCAAUAUUACGAUCG,0.18 ± 0.12,0.439 ± 0.23
GGGUAGCAAUAUUACGAUUA,-0.341 ± 0.13,-0.00462 ± 0.1
UAAUAGCAAUAUUACGGACA,-1.12 ± 0.17,-0.393 ± 0.16
CUAUAGCAAUAUUACGUUCU,-3.41 ± 0.35,-3.02 ± 0.47
GGCUAGCAAUAUUACGCCCU,–,0.0828 ± 0.36

Sequence,self-splicing fitness (ln) (30 °C),self-splicing fitness (ln) (37 °C)
AGGUAGCAAUAUUACGUAUU,-2.78 ± 0.018,-1.45 ± 0.035
CCAUAGCAAUAUUACGAAAA,-3.02 ± 0.29,–
AUUCAGCAAUAUUACGUCGG,-3.16 ± 0.17,-2.28 ± 0.21
AUUAAGCAAUAUUACGACGA,-0.668 ± 0.11,0.398 ± 0.13
CUCCAGCAAUAUUACGAACA,-3.95 ± 0.43,-2.23 ± 0.21
AGAUAGCAAUAUUACGUUCC,-1.62 ± 0.2,-1.48 ± 0.23
GCAAAGCAAUAUUACGCCUG,-2.21 ± 0.1,-1.12 ± 0.12
CAAUAGCAAUAUUACGUCUU,-3.63 ± 0.14,-2.09 ± 0.13
CCAUAGCAAUAUUACGCUAA,-3.38 ± 0.22,-2.75 ± 0.32
UCAGAGCAAUAUUACGUCAA,-3.81 ± 0.4,-2.13 ± 0.23
UUUAAGCAAUAUUACGGUCU,-2.5 ± 0.14,-1.66 ± 0.15
GAGAAGCAAUAUUACGAGAU,-4.47 ± 0.42,-2.1 ± 0.22
CGUCAGCAAUAUUACGGACC,-0.189 ± 0.17,0.292 ± 0.17
ACGAAGCAAUAUUACGGAAG,-2.54 ± 0.12,-2.4 ± 0.19
AGCUAGCAAUAUUACGAGAG,-2.83 ± 0.15,-3.13 ± 0.28
AUCGAGCAAUAUUACGCAAG,-3.22 ± 0.43,-1.72 ± 0.26
UGCGAGCAAUAUUACGUCGU,-3.64 ± 0.25,-3.4 ± 0.37
ACUAAGCAAUAUUACGAUGC,-1.53 ± 0.091,-0.792 ± 0.11
CGCAAGCAAUAUUACGGACC,-1.72 ± 0.1,-0.3 ± 0.14
AACCAGCAAUAUUACGGCAA,-0.217 ± 0.07,-0.0314 ± 0.082
GAUGAGCAAUAUUACGAGGU,-2.66 ± 0.32,-1.99 ± 0.33
GAACAGCAAUAUUACGUACU,-1.26 ± 0.077,-0.125 ± 0.1
GUUAAGCAAUAUUACGGUAG,-2.87 ± 0.17,-1.69 ± 0.17
GUUUAGCAAUAUUACGUACU,-0.0508 ± 0.3,0.333 ± 0.33
AUGAAGCAAUAUUACGAUUA,-0.416 ± 0.082,0.189 ± 0.12
